Measurements: patent US20120171195A1

Assays:
HLA-B*8201 (human) [1] = molecular target: HLA-B*8201 (human) (UniProt P01889); assay: Luminex beads; MAb 1/1600; PBS only
HLA-Cw*0202 (human) = assay: Luminex beads; MAb 1/1600; PBS only
HLA-Cw*0304 (human) [2] = assay: Luminex beads; MAb 1/1600; PBS only
HLA-B*4101 (human) [3] = molecular target: HLA-B*4101 (human) (UniProt P01889); assay: Luminex beads; MAb 1/1600; PBS only
HLA-B*5201 (human) [4] = assay: Luminex beads; MAb 1/1600; PBS only
HLA-B*4601 (human) = HLA-B*4601 (human) (UniProt P01889); assay: Luminex beads; MAb 1/1600; PBS only
HLA-B*4501 (human) = assay: Luminex beads; MAb 1/1600; PBS only
HLA-B*2705 (human) = HLA-B*2705 (human) (UniProt P01889); assay: Luminex beads; MAb 1/1600; PBS only
HLA-Cw*1502 (human) = assay: Luminex beads; MAb 1/1600; PBS only
HLA-Cw*1601 (human) [5] = molecular target: HLA-Cw*1601 (human) (UniProt P10321); assay: Luminex beads; MAb 1/1600; PBS only
HLA-Cw*0303 (human) [6] = assay: Luminex beads; MAb 1/1600; PBS only
HLA-B*5801 (human) [7] = assay: Luminex beads; MAb 1/1600; PBS only
HLA-B*4701 (human) = assay: Luminex beads; MAb 1/1600; PBS only
HLA-B*5101 (human) [8] = assay: Luminex beads; MAb 1/1600; PBS only
HLA-B*2708 (human) = HLA-B*2708 (human) (UniProt P01889); assay: Luminex beads; MAb 1/1600; PBS only
HLA-B*0801 (human) = HLA-B*0801 (human) (UniProt P01889); assay: Luminex beads; MAb 1/1600; PBS only
HLA-Cw*1802 (human) = HLA-Cw*1802 (human) (UniProt P10321); assay: Luminex beads; MAb 1/800; PBS only
HLA-B*8201 (human) [9] = molecular target: HLA-B*8201 (human) (UniProt P01889); assay: Luminex beads; MAb 1/800; PBS only
HLA-Cw*0304 (human) [10] = assay: Luminex beads; MAb 1/800; PBS only
HLA-B*4101 (human) [11] = molecular target: HLA-B*4101 (human) (UniProt P01889); assay: Luminex beads; MAb 1/800; PBS only
HLA-B*5201 (human) [12] = assay: Luminex beads; MAb 1/800; PBS only
HLA-Cw*0602 (human) = HLA-Cw*0602 (human) (UniProt P10321); assay: Luminex beads; MAb 1/800; PBS only
HLA-B*4403 (human) = assay: Luminex beads; MAb 1/800; PBS only
HLA-B*3701 (human) = assay: Luminex beads; MAb 1/800; PBS only
HLA-B*1511 (human) = HLA-B*1511 (human) (UniProt P01889); assay: Luminex beads; MAb 1/800; PBS only
HLA-Cw*1601 (human) [13] = molecular target: HLA-Cw*1601 (human) (UniProt P10321); assay: Luminex beads; MAb 1/800; PBS only
HLA-Cw*1701 (human) = assay: Luminex beads; MAb 1/800; PBS only
HLA-Cw*0303 (human) [14] = assay: Luminex beads; MAb 1/800; PBS only
HLA-B*5801 (human) [15] = assay: Luminex beads; MAb 1/800; PBS only
HLA-B*1513 (human) = assay: Luminex beads; MAb 1/800; PBS only
HLA-B*5101 (human) [16] = assay: Luminex beads; MAb 1/800; PBS only
HLA-B*1516 (B63) (human) = assay: Luminex single-antigen beads; MEM-E/02 1/600; serum Mi127 1/100
HLA-B*3901 (B39) (human) = HLA-B*3901 (B39) (human) (UniProt P01889); assay: as above
HLA-B*4801 (B48) (human) = HLA-B*4801 (B48) (human) (UniProt P01889); assay: as above
HLA-A*3301 (A33) (human) = assay: as above
HLA-B*6701 (B67) (human) = HLA-B*6701 (B67) (human) (UniProt P01889); assay: Luminex single-antigen beads; rank of MEM-E/02 reactivity among HLA-Ia alleles
HLA-B*5001 (B50) (human) = assay: as above
HLA-B*1801 (B18) (human) = assay: as above
HLA-B*2708 (B27) (human) = HLA-B*2708 (B27) (human) (UniProt P01889); assay: as above
HLA-B*0801 (B8) (human) = HLA-B*0801 (B8) (human) (UniProt P01889); assay: as above
HLA-B*3801 (B38) (human) = assay: as above
[17] = molecular target: HLA-Cw*1203 (Cw12) (human) (UniProt P10321); assay: as above
[18] = molecular target: HLA-Cw*1701 (Cw17) (human); assay: as above
HLA-A*2403 (A24) (human) = assay: as above

murine monoclonal antibody (MAb) MEM-E/02
MFI (HLA-B*8201 (human) [1]): 417 MFI | MFI (HLA-Cw*0202 (human)): 785 MFI | MFI (HLA-Cw*0304 (human) [2]): 512 MFI | MFI (HLA-B*4101 (human) [3]): 645 MFI | MFI (HLA-B*5201 (human) [4]): 537 MFI | MFI (HLA-B*4601 (human)): 375 MFI | MFI (HLA-B*4501 (human)): 808 MFI | MFI (HLA-B*2705 (human)): 191 MFI | MFI (HLA-Cw*1502 (human)): 485 MFI | MFI (HLA-Cw*1601 (human) [5]): 524 MFI | MFI (HLA-Cw*0303 (human) [6]): 530 MFI | MFI (HLA-B*5801 (human) [7]): 524 MFI | MFI (HLA-B*4701 (human)): 804 MFI | MFI (HLA-B*5101 (human) [8]): 347 MFI | MFI (HLA-B*2708 (human)): 396 MFI | MFI (HLA-B*0801 (human)): 262 MFI | MFI (HLA-Cw*1802 (human)): 4090 MFI | MFI (HLA-B*8201 (human) [9]): 614 MFI | MFI (HLA-Cw*0304 (human) [10]): 783 MFI | MFI (HLA-B*4101 (human) [11]): 960 MFI | MFI (HLA-B*5201 (human) [12]): 786 MFI | MFI (HLA-Cw*0602 (human)): 839 MFI | MFI (HLA-B*4403 (human)): 983 MFI | MFI (HLA-B*3701 (human)): 993 MFI | MFI (HLA-B*1511 (human)): 796 MFI | MFI (HLA-Cw*1601 (human) [13]): 752 MFI | MFI (HLA-Cw*1701 (human)): 847 MFI | MFI (HLA-Cw*0303 (human) [14]): 805 MFI | MFI (HLA-B*5801 (human) [15]): 835 MFI | MFI (HLA-B*1513 (human)): 760 MFI | MFI (HLA-B*5101 (human) [16]): 515 MFI

murine monoclonal antibody MAb MEM-E/02
MFI (HLA-B*1516 (B63) (human)): 1840 MFI | % inhibition (HLA-B*3901 (B39) (human)): 16% | MFI (HLA-B*3901 (B39) (human)): 1480 MFI | % inhibition (HLA-B*4801 (B48) (human)): 16% | MFI (HLA-A*3301 (A33) (human)): 3170 MFI | MEM-E/02 Reactivity Rank (HLA-B*6701 (B67) (human)): > 65 rank | MEM-E/02 Reactivity Rank (HLA-B*5001 (B50) (human)): > 65 rank | MEM-E/02 Reactivity Rank (HLA-B*1801 (B18) (human)): 36 rank | MEM-E/02 Reactivity Rank (HLA-B*2708 (B27) (human)): > 65 rank | MEM-E/02 Reactivity Rank (HLA-B*0801 (B8) (human)): > 65 rank | MEM-E/02 Reactivity Rank (HLA-B*3801 (B38) (human)): > 65 rank | MEM-E/02 Reactivity Rank [17]: 36 rank | MEM-E/02 Reactivity Rank [18]: 28 rank | MEM-E/02 Reactivity Rank (HLA-A*2403 (A24) (human)): 63 rank
